# T1: CLUST.143952 3300028591 effector (Ga0247611_10000032_233) (uncultured metagenome (sheep rumen))
# T1 chain: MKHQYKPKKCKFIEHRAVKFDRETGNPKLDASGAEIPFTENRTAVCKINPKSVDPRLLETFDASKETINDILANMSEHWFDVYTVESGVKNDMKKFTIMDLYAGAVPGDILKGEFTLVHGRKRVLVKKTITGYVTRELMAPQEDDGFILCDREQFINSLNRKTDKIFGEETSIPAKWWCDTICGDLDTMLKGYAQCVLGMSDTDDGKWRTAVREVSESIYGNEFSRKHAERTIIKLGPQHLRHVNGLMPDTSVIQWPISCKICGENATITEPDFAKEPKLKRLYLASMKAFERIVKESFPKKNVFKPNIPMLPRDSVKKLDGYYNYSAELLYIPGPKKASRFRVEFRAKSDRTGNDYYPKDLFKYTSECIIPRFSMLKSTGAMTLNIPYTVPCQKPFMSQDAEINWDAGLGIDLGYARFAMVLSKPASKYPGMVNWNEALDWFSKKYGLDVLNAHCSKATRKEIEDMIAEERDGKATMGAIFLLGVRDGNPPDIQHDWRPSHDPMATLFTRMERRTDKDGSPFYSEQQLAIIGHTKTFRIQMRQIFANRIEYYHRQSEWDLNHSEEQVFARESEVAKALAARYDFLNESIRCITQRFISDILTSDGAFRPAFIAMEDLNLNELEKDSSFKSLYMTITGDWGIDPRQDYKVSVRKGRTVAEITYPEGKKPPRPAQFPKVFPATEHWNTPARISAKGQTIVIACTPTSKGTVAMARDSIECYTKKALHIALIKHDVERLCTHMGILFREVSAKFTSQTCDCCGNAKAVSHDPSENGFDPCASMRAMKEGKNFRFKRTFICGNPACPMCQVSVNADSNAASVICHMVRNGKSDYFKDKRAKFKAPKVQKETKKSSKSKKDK
# What was measured:
# [1] = target: T1, CLUST.143952 3300028591 effector …; experiment: PAM 5'-G-3'; 37 C, in vitro transcription/translation; ratio normalised to non-target guide (SEQ 93); conditions: tags: FDA assay, one-pot in vitro transcription/translation
# Text: (§1) In this assay, an active CRISPR system designed to target GFP binds and cleaves the double-stranded DNA region encoding GFP, resulting in depletion of GFP fluorescence. The FDA assay involves in vitro transcription and translation, allowing production of an RNP from a DNA template encoding a CLUST.143952 effector and a DNA template containing a pre-crRNA sequence under a T7 promoter with direct repeat (DR)-spacer-direct repeat (DR); the spacer targeted GFP. In the same one-pot reaction, GFP and RFP were also produced as both the target and the fluorescence reporter (FIG. 8A). The target GFP plasmid sequence is set forth in SEQ ID NO: 86, and the RFP plasmid sequence is set forth in SEQ ID NO: 87. GFP and RFP fluorescence values were measured every 20 min at 37° C. for 12 hr, using a TECAN Infinite F Plex plate reader. Since RFP was not targeted, its fluorescence was not affected and was therefore used as an internal signal control.
# (§2) 2 GFP targets (plus 2 non-targets) were designed for the effector of SEQ ID NO: 1. RNA guide sequences (pre-crRNAs for Target 1 and Non-Target 2 and mature crRNAs for Target 3 and Non-Target 4), target sequences, and the non-target control sequences used for the FDA assay are listed in TABLE 9. […]
# (§3) GFP signal was normalized to RFP signal, then the average fluorescence of three technical replicates was taken at each time point. […]
# [2] = target: T1, CLUST.143952 3300028591 effector …; experiment: PAM 5'-G-3'; 37 C, in vitro transcription/translation; ratio normalised to non-target guide (SEQ 90); conditions: tags: FDA assay, one-pot in vitro transcription/translation
# Text: as §1, §2, §3
Binder,activity [1] [GFP depletion ratio],activity [2] [GFP depletion ratio]
mature crRNA Target 3 ; GFP Target 3 (ssRNA ; dsDNA) RNA: UAUGGUAGAGGUGCCACCGGUUUACAUGGCGCCGAUACCAAGGUAUGAAAUUUAUCAUUAAAG DNA 1: AAGGTATGAAATTTATCATTAAAG DNA 2: CTTTAATGATAAATTTCATACCTT,> 1,–
pre-crRNA Target 1 (DR-spacer-DR) ; GFP Target 1 (ssRNA ; dsDNA) RNA: UAUGGUAGAGGUGCCACCGGUUUACAUGGCGCCGAUACCAAGGUAUGAAAUUUAUCAUUAAAGGCGUAUGGUAGAGGUGCCACCGGUUUACAUGGCGCCGAUACCUAACCCCUCUCUAAACGGAGGGGUUU DNA 1: AAGGTATGAAATTTATCATTAAAGGCG DNA 2: CGCCTTTAATGATAAATTTCATACCTT,–,> 1

# — patent US20220282283, “NOVEL CRISPR DNA TARGETING ENZYMES AND SYSTEMS” (ARBOR BIOTECHNOLOGIES, INC., published 2022)
